# Patent EP4537907A1
# Experiments:
# [1] = target: SNX18 in human lung fibroblasts (human) (UniProt Q96RF0); assay: LRC-TriCEPS ligand-receptor capture on living human lung fibroblasts (n=3 donors), LC-MS/MS enrichment; reference ligand BSA
# [2] = target: RECK on human lung fibroblasts (human) (UniProt O95980); assay: as above
# [3] = target: CD44 on human lung fibroblasts (human) (UniProt P16070); assay: as above
# [4] = target: ADT3 in human lung fibroblasts (human) (UniProt P12236); assay: as above
# [5] = target: CSPG4 on human lung fibroblasts (human) (UniProt Q6UVK1); assay: as above
# [6] = target: CAVN1 in human lung fibroblasts (human) (UniProt Q6NZI2); assay: as above
# [7] = target: NRP1 on human lung fibroblasts (human) (UniProt O14786); assay: as above
# [8] = target: CD248 on human lung fibroblasts (human) (UniProt Q9HCU0); assay: as above
# [9] = target: GPC1 on human lung fibroblasts (human) (UniProt P35052); assay: as above
# [10] = target: ADRB1 on human lung fibroblasts (human) (UniProt P08588); assay: as above
# [11] = target: SNX18 in human lung fibroblasts (human) (UniProt Q96RF0); assay: LRC-TriCEPS ligand-receptor capture on living human lung fibroblasts (n=3 donors), LC-MS/MS enrichment; reference ligand transferrin (TRFE)
# [12] = target: RECK on human lung fibroblasts (human) (UniProt O95980); assay: as above
# [13] = target: CD44 on human lung fibroblasts (human) (UniProt P16070); assay: as above
# [14] = target: ADT3 in human lung fibroblasts (human) (UniProt P12236); assay: as above
# [15] = target: CSPG4 on human lung fibroblasts (human) (UniProt Q6UVK1); assay: as above
# [16] = target: CAVN1 in human lung fibroblasts (human) (UniProt Q6NZI2); assay: as above
# [17] = target: NRP1 on human lung fibroblasts (human) (UniProt O14786); assay: as above
# [18] = target: CD248 on human lung fibroblasts (human) (UniProt Q9HCU0); assay: as above
# [19] = target: GPC1 on human lung fibroblasts (human) (UniProt P35052); assay: as above
# [20] = target: ADRB1 on human lung fibroblasts (human) (UniProt P08588); assay: as above
# Chain of CSPG4 on human lung fibroblasts (human) (Q6UVK1 30-2322): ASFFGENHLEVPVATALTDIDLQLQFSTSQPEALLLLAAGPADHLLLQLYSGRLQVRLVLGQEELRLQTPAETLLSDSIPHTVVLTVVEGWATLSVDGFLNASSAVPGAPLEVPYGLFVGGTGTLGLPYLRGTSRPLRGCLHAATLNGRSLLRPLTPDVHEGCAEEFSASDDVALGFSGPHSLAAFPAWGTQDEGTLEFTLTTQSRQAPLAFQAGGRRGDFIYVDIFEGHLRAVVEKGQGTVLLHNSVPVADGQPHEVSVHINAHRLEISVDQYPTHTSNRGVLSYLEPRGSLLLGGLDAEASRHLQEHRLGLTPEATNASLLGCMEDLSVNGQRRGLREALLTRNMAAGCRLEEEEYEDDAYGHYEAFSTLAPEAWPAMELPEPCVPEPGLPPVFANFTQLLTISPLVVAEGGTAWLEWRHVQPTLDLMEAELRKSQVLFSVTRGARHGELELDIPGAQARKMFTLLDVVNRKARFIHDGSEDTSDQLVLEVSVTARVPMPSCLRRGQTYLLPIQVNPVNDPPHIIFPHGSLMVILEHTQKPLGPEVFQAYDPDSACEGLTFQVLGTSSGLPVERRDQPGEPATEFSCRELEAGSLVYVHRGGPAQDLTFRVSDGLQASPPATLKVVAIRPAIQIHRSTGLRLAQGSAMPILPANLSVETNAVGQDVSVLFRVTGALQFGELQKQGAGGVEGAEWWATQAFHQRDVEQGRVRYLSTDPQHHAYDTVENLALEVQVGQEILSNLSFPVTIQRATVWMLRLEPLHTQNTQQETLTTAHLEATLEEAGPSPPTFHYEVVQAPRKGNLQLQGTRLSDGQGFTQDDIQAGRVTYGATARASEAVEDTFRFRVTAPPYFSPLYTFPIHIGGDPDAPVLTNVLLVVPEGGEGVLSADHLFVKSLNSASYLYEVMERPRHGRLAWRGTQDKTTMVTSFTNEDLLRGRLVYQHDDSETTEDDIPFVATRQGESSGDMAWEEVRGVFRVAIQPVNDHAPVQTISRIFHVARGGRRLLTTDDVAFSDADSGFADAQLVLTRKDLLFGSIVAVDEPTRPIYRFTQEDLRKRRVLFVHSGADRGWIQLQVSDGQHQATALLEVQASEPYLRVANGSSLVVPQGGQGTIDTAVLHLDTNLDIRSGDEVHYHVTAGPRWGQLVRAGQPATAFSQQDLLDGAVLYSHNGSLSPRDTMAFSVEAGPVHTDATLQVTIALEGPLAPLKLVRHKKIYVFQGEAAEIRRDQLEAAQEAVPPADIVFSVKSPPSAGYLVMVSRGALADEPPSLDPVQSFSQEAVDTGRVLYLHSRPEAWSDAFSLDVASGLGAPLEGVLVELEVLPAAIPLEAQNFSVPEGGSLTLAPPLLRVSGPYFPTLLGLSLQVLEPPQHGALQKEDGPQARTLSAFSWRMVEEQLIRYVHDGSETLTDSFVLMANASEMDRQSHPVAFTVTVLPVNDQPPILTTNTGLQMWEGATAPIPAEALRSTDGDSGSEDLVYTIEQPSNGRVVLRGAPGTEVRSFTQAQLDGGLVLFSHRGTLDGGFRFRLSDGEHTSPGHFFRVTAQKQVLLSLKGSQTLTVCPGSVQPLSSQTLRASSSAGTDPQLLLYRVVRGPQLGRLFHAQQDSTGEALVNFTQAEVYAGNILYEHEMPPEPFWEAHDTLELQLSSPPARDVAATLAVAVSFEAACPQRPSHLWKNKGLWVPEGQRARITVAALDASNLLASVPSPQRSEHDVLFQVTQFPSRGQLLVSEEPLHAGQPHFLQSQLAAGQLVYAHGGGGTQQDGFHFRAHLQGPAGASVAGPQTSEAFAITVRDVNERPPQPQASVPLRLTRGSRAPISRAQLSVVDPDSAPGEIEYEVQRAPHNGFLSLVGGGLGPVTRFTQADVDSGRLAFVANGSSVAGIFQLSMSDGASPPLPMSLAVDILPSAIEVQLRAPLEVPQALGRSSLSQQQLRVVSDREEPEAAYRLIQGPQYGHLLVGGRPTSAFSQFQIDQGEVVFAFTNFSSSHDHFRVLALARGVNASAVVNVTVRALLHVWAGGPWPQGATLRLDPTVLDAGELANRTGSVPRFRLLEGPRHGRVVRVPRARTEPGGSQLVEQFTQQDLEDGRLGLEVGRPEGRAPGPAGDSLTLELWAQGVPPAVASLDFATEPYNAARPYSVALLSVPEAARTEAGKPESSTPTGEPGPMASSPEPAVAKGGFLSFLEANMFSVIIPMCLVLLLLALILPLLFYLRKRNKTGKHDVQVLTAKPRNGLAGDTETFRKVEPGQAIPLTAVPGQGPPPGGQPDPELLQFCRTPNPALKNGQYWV
# Chain of ADT3 in human lung fibroblasts (human) (P12236 whole entry): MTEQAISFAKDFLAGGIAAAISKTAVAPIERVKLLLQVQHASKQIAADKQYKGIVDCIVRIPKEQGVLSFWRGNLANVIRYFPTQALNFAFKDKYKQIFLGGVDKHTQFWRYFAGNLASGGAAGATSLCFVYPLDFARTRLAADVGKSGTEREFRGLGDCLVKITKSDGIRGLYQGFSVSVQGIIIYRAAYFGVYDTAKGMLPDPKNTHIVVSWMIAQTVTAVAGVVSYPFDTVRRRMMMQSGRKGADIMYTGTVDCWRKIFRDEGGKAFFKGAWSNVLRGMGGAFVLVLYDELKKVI
# Chain of GPC1 on human lung fibroblasts (human) (P35052 24-530): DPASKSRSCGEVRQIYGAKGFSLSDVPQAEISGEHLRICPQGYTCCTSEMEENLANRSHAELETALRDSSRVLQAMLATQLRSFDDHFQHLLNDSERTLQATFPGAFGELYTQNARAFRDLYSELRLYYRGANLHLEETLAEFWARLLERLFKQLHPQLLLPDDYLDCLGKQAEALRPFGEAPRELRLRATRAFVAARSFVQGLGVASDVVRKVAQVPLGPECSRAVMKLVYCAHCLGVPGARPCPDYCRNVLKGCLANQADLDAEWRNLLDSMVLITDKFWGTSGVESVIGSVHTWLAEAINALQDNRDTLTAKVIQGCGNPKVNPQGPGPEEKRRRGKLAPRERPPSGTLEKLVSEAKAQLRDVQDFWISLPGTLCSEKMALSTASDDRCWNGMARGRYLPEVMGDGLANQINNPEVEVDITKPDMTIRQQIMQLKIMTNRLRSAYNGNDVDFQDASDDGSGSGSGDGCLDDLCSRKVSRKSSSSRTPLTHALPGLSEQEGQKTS
# Chain of CD44 on human lung fibroblasts (human) (P16070 21-742): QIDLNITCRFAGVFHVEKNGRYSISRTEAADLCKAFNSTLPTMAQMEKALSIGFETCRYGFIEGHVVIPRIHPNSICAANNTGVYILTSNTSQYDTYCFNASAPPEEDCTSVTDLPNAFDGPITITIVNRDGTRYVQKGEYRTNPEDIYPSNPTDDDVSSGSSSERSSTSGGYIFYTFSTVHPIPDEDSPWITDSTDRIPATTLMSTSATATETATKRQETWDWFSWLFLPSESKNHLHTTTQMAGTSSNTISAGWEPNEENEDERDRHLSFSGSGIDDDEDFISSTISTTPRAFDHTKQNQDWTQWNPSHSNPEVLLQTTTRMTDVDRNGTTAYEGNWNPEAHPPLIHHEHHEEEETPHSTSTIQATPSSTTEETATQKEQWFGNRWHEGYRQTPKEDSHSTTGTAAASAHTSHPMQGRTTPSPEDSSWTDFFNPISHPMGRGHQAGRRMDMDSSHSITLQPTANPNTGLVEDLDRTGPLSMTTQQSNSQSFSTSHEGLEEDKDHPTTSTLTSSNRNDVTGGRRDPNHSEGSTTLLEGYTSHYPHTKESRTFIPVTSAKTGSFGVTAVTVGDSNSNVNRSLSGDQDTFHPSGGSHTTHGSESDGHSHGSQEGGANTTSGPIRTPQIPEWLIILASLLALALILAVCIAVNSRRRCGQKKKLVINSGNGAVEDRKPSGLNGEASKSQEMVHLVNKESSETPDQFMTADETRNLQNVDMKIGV
# Chain of ADRB1 on human lung fibroblasts (human) (P08588 whole entry): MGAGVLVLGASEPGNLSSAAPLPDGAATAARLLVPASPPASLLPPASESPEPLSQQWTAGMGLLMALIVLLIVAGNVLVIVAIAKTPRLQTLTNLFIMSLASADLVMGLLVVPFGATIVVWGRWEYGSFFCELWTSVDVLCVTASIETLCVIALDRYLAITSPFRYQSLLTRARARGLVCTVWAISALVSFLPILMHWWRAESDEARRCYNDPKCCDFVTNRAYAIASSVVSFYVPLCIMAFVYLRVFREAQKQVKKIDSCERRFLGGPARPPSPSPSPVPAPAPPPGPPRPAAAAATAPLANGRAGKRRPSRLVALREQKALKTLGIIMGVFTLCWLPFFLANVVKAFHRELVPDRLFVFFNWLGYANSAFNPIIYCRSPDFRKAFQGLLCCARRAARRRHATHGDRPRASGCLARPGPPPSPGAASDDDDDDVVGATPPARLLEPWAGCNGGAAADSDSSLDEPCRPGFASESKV
# Chain of CAVN1 in human lung fibroblasts (human) (Q6NZI2 whole entry): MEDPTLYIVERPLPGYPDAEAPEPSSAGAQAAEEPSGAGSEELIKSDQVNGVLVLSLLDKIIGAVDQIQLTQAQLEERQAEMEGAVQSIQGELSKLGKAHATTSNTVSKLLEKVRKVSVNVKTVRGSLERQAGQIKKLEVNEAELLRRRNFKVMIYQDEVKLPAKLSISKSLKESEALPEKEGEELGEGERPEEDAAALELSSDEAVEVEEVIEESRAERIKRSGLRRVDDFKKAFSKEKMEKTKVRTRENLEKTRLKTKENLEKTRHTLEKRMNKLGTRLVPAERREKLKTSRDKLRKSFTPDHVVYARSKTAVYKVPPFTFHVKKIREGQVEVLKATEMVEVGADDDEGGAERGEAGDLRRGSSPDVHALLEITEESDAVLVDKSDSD
substance,measurement,setting,value
recombinant human IGFBP5 (from UniProt P24593 21-272) (ligand),log2(FC) IGFBP5 vs BSA (log2 fold change),[1],-2.5
same,log2(FC) IGFBP5 vs BSA (log2 fold change),[2],-4.3
same,log2(FC) IGFBP5 vs BSA (log2 fold change),[3],-0.8
same,log2(FC) IGFBP5 vs BSA (log2 fold change),[4],-1.6
same,log2(FC) IGFBP5 vs BSA (log2 fold change),[5],-2.2
same,log2(FC) IGFBP5 vs BSA (log2 fold change),[6],-1.5
same,log2(FC) IGFBP5 vs BSA (log2 fold change),[7],-3.8
same,log2(FC) IGFBP5 vs BSA (log2 fold change),[8],-2.2
same,log2(FC) IGFBP5 vs BSA (log2 fold change),[9],-5.9
same,log2(FC) IGFBP5 vs BSA (log2 fold change),[10],-4.9
same,log2(FC) IGFBP5 vs TRFE (log2 fold change),[11],-1.7
same,log2(FC) IGFBP5 vs TRFE (log2 fold change),[12],-2.3
same,log2(FC) IGFBP5 vs TRFE (log2 fold change),[13],-0.6
same,log2(FC) IGFBP5 vs TRFE (log2 fold change),[14],-1
same,log2(FC) IGFBP5 vs TRFE (log2 fold change),[15],-2.3
same,log2(FC) IGFBP5 vs TRFE (log2 fold change),[16],-1
same,log2(FC) IGFBP5 vs TRFE (log2 fold change),[17],-3.7
same,log2(FC) IGFBP5 vs TRFE (log2 fold change),[18],-1.8
same,log2(FC) IGFBP5 vs TRFE (log2 fold change),[19],-5.5
same,log2(FC) IGFBP5 vs TRFE (log2 fold change),[20],-4.1
